Measured values reported in patent US20090148437A1.

Key:
[1] = biological target: human TNFR1 (soluble recombinant protein) (human) (UniProt P19438); assay: phage ELISA, 1 nM TNFRI coat; no trypsin; phage input 1.13E+10
[2] = biological target: human TNFR1 (soluble recombinant protein) (human) (UniProt P19438); assay: phage ELISA, 1 nM TNFRI coat; no trypsin; phage input 1.41E+09
[3] = biological target: human TNFR1 (soluble recombinant protein) (human) (UniProt P19438); assay: phage ELISA, 1 nM TNFRI coat; no trypsin; phage input 2.26E+10
[4] = biological target: human TNFR1 (soluble recombinant protein) (human) (UniProt P19438); assay: phage ELISA, 1 nM TNFRI coat; no trypsin; phage input 2.82E+09
[5] = biological target: human TNFR1 (soluble recombinant protein) (human) (UniProt P19438); assay: phage ELISA, 1 nM TNFRI coat; no trypsin; phage input 3.52E+08
[6] = biological target: human TNFR1 (soluble recombinant protein) (human) (UniProt P19438); assay: phage ELISA, 1 nM TNFRI coat; no trypsin; phage input 5.64E+09
[7] = biological target: human TNFR1 (soluble recombinant protein) (human) (UniProt P19438); assay: phage ELISA, 1 nM TNFRI coat; no trypsin; phage input 7.05E+08
[8] = biological target: human TNFR1 (soluble recombinant protein) (human) (UniProt P19438); assay: phage ELISA, 1 nM TNFRI coat; 1 mg/ml trypsin; phage input 1.13E+10
[9] = biological target: human TNFR1 (soluble recombinant protein) (human) (UniProt P19438); assay: phage ELISA, 1 nM TNFRI coat; 1 mg/ml trypsin; phage input 1.41E+09
[10] = biological target: human TNFR1 (soluble recombinant protein) (human) (UniProt P19438); assay: phage ELISA, 1 nM TNFRI coat; 1 mg/ml trypsin; phage input 2.26E+10
[11] = biological target: human TNFR1 (soluble recombinant protein) (human) (UniProt P19438); assay: phage ELISA, 1 nM TNFRI coat; 1 mg/ml trypsin; phage input 2.82E+09
[12] = biological target: human TNFR1 (soluble recombinant protein) (human) (UniProt P19438); assay: phage ELISA, 1 nM TNFRI coat; 1 mg/ml trypsin; phage input 3.52E+08
[13] = biological target: human TNFR1 (soluble recombinant protein) (human) (UniProt P19438); assay: phage ELISA, 1 nM TNFRI coat; 1 mg/ml trypsin; phage input 7.05E+08
[14] = biological target: human TNFR1 (soluble recombinant protein) (human) (UniProt P19438); assay: phage ELISA, 1 nM TNFRI coat; 10 µg/ml trypsin; phage input 1.13E+10
[15] = biological target: human TNFR1 (soluble recombinant protein) (human) (UniProt P19438); assay: phage ELISA, 1 nM TNFRI coat; 10 µg/ml trypsin; phage input 1.41E+09
[16] = biological target: human TNFR1 (soluble recombinant protein) (human) (UniProt P19438); assay: phage ELISA, 1 nM TNFRI coat; 10 µg/ml trypsin; phage input 2.26E+10
[17] = biological target: human TNFR1 (soluble recombinant protein) (human) (UniProt P19438); assay: phage ELISA, 1 nM TNFRI coat; 10 µg/ml trypsin; phage input 2.82E+09
[18] = biological target: human TNFR1 (soluble recombinant protein) (human) (UniProt P19438); assay: phage ELISA, 1 nM TNFRI coat; 10 µg/ml trypsin; phage input 3.52E+08
[19] = biological target: human TNFR1 (soluble recombinant protein) (human) (UniProt P19438); assay: phage ELISA, 1 nM TNFRI coat; 10 µg/ml trypsin; phage input 5.64E+09
[20] = biological target: human TNFR1 (soluble recombinant protein) (human) (UniProt P19438); assay: phage ELISA, 1 nM TNFRI coat; 10 µg/ml trypsin; phage input 7.05E+08
[21] = biological target: human TNFR1 (soluble recombinant protein) (human) (UniProt P19438); assay: phage ELISA, 1 nM TNFRI coat; 100 µg/ml trypsin; phage input 1.13E+10
[22] = biological target: human TNFR1 (soluble recombinant protein) (human) (UniProt P19438); assay: phage ELISA, 1 nM TNFRI coat; 100 µg/ml trypsin; phage input 1.41E+09
[23] = biological target: human TNFR1 (soluble recombinant protein) (human) (UniProt P19438); assay: phage ELISA, 1 nM TNFRI coat; 100 µg/ml trypsin; phage input 2.26E+10
[24] = biological target: human TNFR1 (soluble recombinant protein) (human) (UniProt P19438); assay: phage ELISA, 1 nM TNFRI coat; 100 µg/ml trypsin; phage input 2.82E+09
[25] = biological target: human TNFR1 (soluble recombinant protein) (human) (UniProt P19438); assay: phage ELISA, 1 nM TNFRI coat; 100 µg/ml trypsin; phage input 3.52E+08
[26] = biological target: human TNFR1 (soluble recombinant protein) (human) (UniProt P19438); assay: phage ELISA, 1 nM TNFRI coat; 100 µg/ml trypsin; phage input 5.64E+09
[27] = biological target: human TNFR1 (soluble recombinant protein) (human) (UniProt P19438); assay: phage ELISA, 1 nM TNFRI coat; 100 µg/ml trypsin; phage input 7.05E+08
[28] = biological target: human TNFR1 (soluble recombinant protein) (human) (UniProt P19438); assay: phage ELISA, plate coated with 1 nM TNFRI, anti-M13-HRP; no trypsin (0 µg/ml); phage input 4.51E+10
[29] = biological target: human TNFR1 (soluble recombinant protein) (human) (UniProt P19438); assay: phage ELISA, plate coated with 1 nM TNFRI, anti-M13-HRP; phage pre-treated 1 h RT with 1 mg/ml trypsin; phage input 4.51E+10
[30] = biological target: human TNFR1 (soluble recombinant protein) (human) (UniProt P19438); assay: phage ELISA, plate coated with 1 nM TNFRI, anti-M13-HRP; phage pre-treated 1 h RT with 10 µg/ml trypsin; phage input 4.51E+10
[31] = biological target: human TNFR1 (soluble recombinant protein) (human) (UniProt P19438); assay: phage ELISA, plate coated with 1 nM TNFRI, anti-M13-HRP; phage pre-treated 1 h RT with 100 µg/ml trypsin; phage input 4.51E+10

human TNFR1 (soluble recombinant protein) (human), sequence (P19438 30-211 limits assumed): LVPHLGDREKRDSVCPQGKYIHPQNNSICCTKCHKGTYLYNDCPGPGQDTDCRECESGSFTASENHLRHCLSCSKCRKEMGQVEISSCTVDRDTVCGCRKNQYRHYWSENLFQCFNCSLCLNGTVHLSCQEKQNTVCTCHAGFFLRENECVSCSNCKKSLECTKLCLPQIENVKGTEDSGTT

DOM1h-131 was tested, and the phage ELISA read-out [1] was 0.949, the phage ELISA read-out [2] was 0.85 and the phage ELISA read-out [3] was 0.944. For the same substance, the phage ELISA read-out [4] was 0.946, the phage ELISA read-out [5] was 0.577 and the phage ELISA read-out [6] was 0.962. It also gave a phage ELISA read-out [7] of 0.705, a phage ELISA read-out [8] of 0.183 and a phage ELISA read-out [9] of 0.089. For the same substance, the phage ELISA read-out [10] was 0.229, the phage ELISA read-out [11] was 0.114 and the phage ELISA read-out [12] was 0.08. It also gave a phage ELISA read-out [13] of 0.084, a phage ELISA read-out [14] of 0.86 and a phage ELISA read-out [15] of 0.409. For the same substance, the phage ELISA read-out [16] was 0.802, the phage ELISA read-out [17] was 0.573 and the phage ELISA read-out [18] was 0.213. It also gave a phage ELISA read-out [19] of 0.695, a phage ELISA read-out [20] of 0.286 and a phage ELISA read-out [21] of 0.284. It also gave a phage ELISA read-out [22] of 0.115, a phage ELISA read-out [23] of 0.377 and a phage ELISA read-out [24] of 0.141. For the same substance, the phage ELISA read-out [25] was 0.084, the phage ELISA read-out [26] was 0.196 and the phage ELISA read-out [27] was 0.084. For the same substance, the phage ELISA read-out [28] was 0.916, the phage ELISA read-out [29] was 0.284 and the phage ELISA read-out [30] was 0.784. It also gave a phage ELISA read-out [31] of 0.418.
